Reference: US20180092984A1 (Seagen, published 2018)

Columns and labels:
[1] = target: cynomolgus monkey CD48 (cynomolgus monkey); assay: flow cytometry saturation binding on CHO-DG44 cells expressing cynomolgus monkey CD48
human CD48 [2] = target: T1, human CD48 (human, UniProt P09326 27-220); assay: flow cytometry saturation binding, U-266 cells against CHO-DG44 cynomolgus monkey CD48 cells
T1 construct: whole, on cells; also called BLAST-1; SLAMF2
T1 sequence (looked up): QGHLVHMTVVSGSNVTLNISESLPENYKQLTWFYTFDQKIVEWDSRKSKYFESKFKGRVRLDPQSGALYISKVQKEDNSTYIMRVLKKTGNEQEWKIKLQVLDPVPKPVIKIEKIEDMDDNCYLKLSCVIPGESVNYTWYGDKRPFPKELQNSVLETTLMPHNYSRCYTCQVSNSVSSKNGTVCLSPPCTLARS
Description: (§1) After one hour incubation on ice, cells were washed twice with phosphate buffered saline containing 2% fetal bovine serum and 0.02% sodium azide. Fluorescence was detected on a LSRII flow cytometer and Kd values were determined using one-site binding (hyperbola) non-linear regression in GraphPad Prism.

human CD48 [3] = target: T1, human CD48; assay: flow cytometry saturation binding, Alexa Fluor-647 antibody on U-266 cells
Description: as §1

[4] = target: cynomolgus monkey CD48 (cynomolgus monkey); assay: flow cytometry saturation binding, Alexa Fluor-647 antibody on CHO-DG44 cells expressing cynomolgus monkey CD48
human CD48 [5] = target: T1, human CD48; assay: flow cytometry saturation binding on U-266 cells
Description: as §1

cMEM102 (antibody)
fold lower Kd compared to mMEM102 [1]: > 4 fold | fold stronger binding affinity to human CD48 compared to cynomolgus monkey CD48 (human CD48 [2]): 6 fold | Kd (human CD48 [3]): 5.8 nM | Kd [4]: 40.5 nM | fold lower Kd compared to mMEM102 (human CD48 [5]): > 4 fold

mMEM102 (antibody)
fold stronger binding affinity to human CD48 compared to cynomolgus monkey CD48 (human CD48 [2]): 6 fold | Kd (human CD48 [3]): 20.8 nM | Kd [4]: 165 nM

B1: hMEM102-HALA (antibody, V domains shown)
VH: QVQLVQSGSELKKPGASVKVSCKASGYTFTDFGMNWVRQAPGQGLEWMGWINTFTGEPSYGNVFKGRFVFSLDTSVSTAYLQISSLKAEDTAVYYCARRHGNGNVFDSWGQGTLVTVSS
VL: EIVLTQSPDFQSVTPKEKVTITCRASQSIGSNIHWYQQKPDQSPKLLIKYTSESISGVPSRFSGSGSGTDFTLTINSLEAEDAATYYCQQSNSWPLTFGGGTKVEIKR
notes: also called humanized MEM102 antibody; humanized MEM102-HALA antibody
fold lower Kd compared to mMEM102 [1]: > 4 fold | fold stronger binding affinity to human CD48 compared to cynomolgus monkey CD48 (human CD48 [2]): ~6 fold | Kd (human CD48 [3]): 5 nM | Kd [4]: 31.1 nM | fold lower Kd compared to mMEM102 (human CD48 [5]): > 4 fold
